Data published in publication PMC12715529, “Functional D- and L‑Naphthalenediimide-Peptides: Microwave-Driven Synthesis, Supramolecular Aggregation, and Multiphoton Fluorescence Lifetime Imaging Microscopy in Living Cells” (ACS Bio & Med Chem Au, 2025).

Legend:
PC-3 cells = conditions: 48 h
Protocol: After splitting the cells, cells (3 × 10^3 cells per well) were seeded on a sterile 96-well plate and incubated for 48 h to let the cells adhere to the plates. The compound of interest was subsequently loaded at different concentrations into the wells and incubated for a further 48 h. The concentrations used ranged between 250 μM or 0.01 mg/mL and 1 nM or 1 ng/mL (1% DMSO with compound, 99% RPMI (10% FCS) for PC-3. Subsequently, the medium from the plates was carefully aspirated so as not to disturb the colonies, and the plates were gently washed with PBS. Next, a mixture of methanol/PBS (1:1) was added in a sufficient volume to cover the colonies, and it was left for 15 min. After this time, it was removed, and 100% methanol was added for a further 15 min. The methanol was then removed, and 0.5% crystal violet solution (in 20% methanol and 80% water) was added and left to allow sufficient staining. The crystal violet solution was removed by carefully rinsing the cell plates with an indirect flow of tap water. The plates were inverted and left on the bench at room temperature to dry the water. Methanol (200 μL) was added to each well, and the plate was incubated with its lid on for 20 min at room temperature on a bench rocker with a frequency of 20 oscillations per minute. The 96-well plates were then read with an ELISA plate reader, Molecular Devices Versa Max (BN02877). […]

[1] = Two-photon TCSPC point decays in solution (aggregation behaviour); format: physicochemical; conditions: for a1 (amplitude of τ1) / a2 (amplitude of τ2) / τ2 (long-lifetime component) / τ1 (short-lifetime component): two-photon TCSPC 910 nm
Source text: Prior to the cellular studies by FLIM, lifetime distribution decays of probes 3 (both enantiomers), 4 (both enantiomers), and L -6 were studied by TCSPC in different concentrations and solvent systems. […] The main fluorescence lifetime parameters obtained by TCSPC in the solution phase are summarized in Table , and further details are given in Figures S105–S133 and Tables S2–S4. The goodness of fit of the data points obtained is represented by the Chi–square parameter, χ^2; τ1 is the short-lifetime component; τ2 is the long-lifetime component; and the parameters a1 and a2 represent the amplitude of the components.

[2] = test system: cancerous cell lines (PC-3); assay: MTT and crystal violet cell viability assays; format: cell-based; conditions: at concentrations used for imaging, over 72 h of observations
Protocol: (§1) Subsequently, cells were washed three times with PBS, and 3-(4,5-dimethylthiazol-2-yl)-2,5- diphenyltetrazolium bromide (MTT) was added (0.5 mg/mL in serum-free medium (SFM)), followed by a 2 h incubation. After aspiration to remove the serum-free medium, 100 μL of DMSO was added to solubilize the precipitated formazan species, and 96-well plates were read by an ELISA plate reader, Molecular Devices Versa Max (BN02877). The absorption wavelength was 570 nm, and a 690 nm wavelength was used as a reference.

[3] = MTT and crystal violet cell viability assays; format: cell-based; conditions: human, PC-3 cells, MTT and crystal violet assays, up to 72 h observation, read-out: IC50 (cytotoxicity)
Protocol: as §1

[4] = FE-SEM and Airyscan confocal imaging of dried films (aggregation morphology); format: physicochemical; conditions: dried powder or freeze-dried 1 mg/mL MeCN/H2O (1:1) or DMSO solutions
Protocol: To further investigate the aggregation behavior, we examined the surface morphologies of the isolated conjugates in the solid state at the micrometer scale using field emission scanning electron microscopy (FE-SEM). This analysis aimed to determine whether the aggregation properties of these peptide-based compounds influence their fluorescence emission. The FE SEM micrographs of the D- and L-enantiomers of 3 and 4 were recorded from dried powder after purification or after freeze-drying of 1 mg/mL solutions deposited in either MeCN/H2O (1:1) or DMSO solutions. […] Confocal laser scanning fluorescence microscopy was performed for the thin films deposited on glass-bottomed borosilicate slides using imaging Petri dishes. Micrographs were acquired using Airyscan detection for L -3 (a1–e1), L -4 (a2–e2), D -3 (a3–e3), D -4 (a4–d4), and L -6 (a5–d5) where these images were recorded following overnight freeze-drying of films deposited from DMSO (Figures and S67). […] This is consistent with our observations from solution excitation–emission maps (Figures and S57–S63) and further points to the overall ability of these aggregates to show fluorescence emission due to possible stacking and excited-state electron and energy dynamics. […] Specifically, emission was detected in the blue (λem = 420–480 nm), green (λem = 495–550 nm), and red (λem = 555–620 nm) channels. […]

[5] = biological target: T1, GRP receptors in PC-3 cells (Homo sapiens, UniProt P30550); assay: Blocking experiment with L-[7–13]BBN, confocal imaging; format: cell-based; conditions: PC-3 pre-incubated with 1 mM L-[7–13]BBN, 37 °C, 20 min, washed, then conjugate 20 min
T1 construct: This also supports the targeted uptake directed by the GRP receptors in PC-3 cells; endogenous in cells; host or cells: PC-3 cells (ATCC)
Protocol: Compound L -6 emits in the green and red channels (500–550 and 570–750 nm, respectively) when excited at 488 nm. […] In addition, the fluorescence emissions in vitro are stronger than the observed fluorescence emission in solution. […] This also supports the targeted uptake directed by the GRP receptors in PC-3 cells interplayed with BODIPY-driven cellular localization. To further probe this observation, a blocking experiment by confocal imaging was conducted (Figures S103–S104), whereby PC-3 cells were first incubated in the presence of a high concentration of L-[7–13]-BBN (1 mM) at 37 °C for 20 min. This peptide is only weakly fluorescent, and on this time scale (and up to 18 h of incubation time), confocal imaging cannot show distinguishable emission, to describe the uptake for L-[7,13]-BBN alone by this method (Figure S87). After the standard 20 min pretreatment time, the cells were washed with PBS and then the serum-free medium (SFM) was replaced. […] In the case of L-6, the observed maximum fluorescence intensity is distributed over the exterior of the cell, with points of aggregation visible around the membrane. […]
Figure S103. […] (D) A comparison of the mean fluorescence intensity estimated from confocal imaging experiments of the standard blocking assays in living PC-3 cells (Figure S103), under 20 min incubation, 37 °C, ex 488 nm. […]

[6] = DMSO, 0.01 mM, double-exponential fit, aggregation indicator

T1 sequence (P30550 whole entry): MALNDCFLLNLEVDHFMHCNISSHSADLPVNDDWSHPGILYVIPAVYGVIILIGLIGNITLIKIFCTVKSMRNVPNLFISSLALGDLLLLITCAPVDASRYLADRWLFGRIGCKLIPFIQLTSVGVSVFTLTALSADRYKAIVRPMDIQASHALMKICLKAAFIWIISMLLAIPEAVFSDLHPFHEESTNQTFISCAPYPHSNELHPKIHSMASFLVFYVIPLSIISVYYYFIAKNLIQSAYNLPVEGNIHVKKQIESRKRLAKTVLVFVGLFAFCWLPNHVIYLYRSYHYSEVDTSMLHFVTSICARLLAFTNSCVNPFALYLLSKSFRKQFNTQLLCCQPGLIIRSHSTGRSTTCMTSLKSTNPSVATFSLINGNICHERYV

Row | Structure (SMILES) | IC50 (PC-3 cells) [µM] | a1 (amplitude of τ1) ([1]; DMSO, 0.01 mM) [%] | a2 (amplitude of τ2) ([1]; DMSO, 0.01 mM) [%] | τ2 (long-lifetime component) ([1]; DMSO, 0.01 mM) [ns] | τ1 (short-lifetime component) [1, 6] [ns] | a1 (amplitude of τ1) ([1]; DMSO, 0.1 mM) [%] | a2 (amplitude of τ2) ([1]; DMSO, 0.1 mM) [%] | τ1 (short-lifetime component) ([1]; DMSO, 0.1 mM) [ns] | a1 (amplitude of τ1) ([1]; DMSO, 1 mM) [%] | a2 (amplitude of τ2) ([1]; DMSO, 1 mM) [%] | τ1 (short-lifetime component) ([1]; DMSO, 1 mM) [ns] | τ2 (long-lifetime component) ([1]; DMSO, 1 mM) [ns] | a1 (amplitude of τ1) ([1]; DMSO/H2O (1:1), 0.025 mM) [%] | a2 (amplitude of τ2) ([1]; DMSO/H2O (1:1), 0.025 mM) [%] | a1 (amplitude of τ1) ([1]; DMSO/H2O (1:1), 2.5 mM) [%] | a2 (amplitude of τ2) ([1]; DMSO/H2O (1:1), 2.5 mM) [%] | τ1 (short-lifetime component) ([1]; DMSO/H2O (1:1), 2.5 mM) [ns] | τ2 (long-lifetime component) ([1]; DMSO/H2O (1:1), 2.5 mM) [ns] | cytotoxicity in words [2] | IC50 at 48 h [3] [µM] | other results
1 | CC(C)C[C@H](NC(=O)[C@H](Cc1c[nH]cn1)NC(=O)CNC(=O)[C@@H](NC(=O)[C@H](C)NC(=O)[C@H](Cc1c[nH]c2ccccc12)NC(=O)[C@H](CCC(N)=O)NC(=O)[C@H](Cc1ccc(I)cc1)N1C(=O)c2ccc3c4c(ccc(c24)C1=O)C(=O)N([C@@H](Cc1ccc(I)cc1)C(=O)ON1C(=O)CCC1=O)C3=O)C(C)C)C(N)=O [L-3] | > 100 | 62 | 38 | 7.35 | 0.84 | 62 | 38 | 0.57 | 63 | 37 | 0.38 | 2.54 | 82 | 18 | 77 | 23 | 0.31 | 3.45 | nontoxic | > 100 | τ1 (short-lifetime component) ([1]; DMSO/H2O (1:1), 0.025 mM): 0.37 ns; τ2 (long-lifetime component) ([1]; DMSO/H2O (1:1), 0.025 mM): 10.01 ns; a1 (amplitude of τ1) ([1]; DMSO/H2O (1:1), 0.25 mM): 81%; a2 (amplitude of τ2) ([1]; DMSO/H2O (1:1), 0.25 mM): 19%; τ1 (short-lifetime component) ([1]; DMSO/H2O (1:1), 0.25 mM): 0.38 ns; τ2 (long-lifetime component) ([1]; DMSO/H2O (1:1), 0.25 mM): 9.87 ns
2 | CC(C)C[C@H](NC(=O)[C@H](Cc1c[nH]cn1)NC(=O)CNC(=O)[C@@H](NC(=O)[C@H](C)NC(=O)[C@H](Cc1c[nH]c2ccccc12)NC(=O)[C@H](CCC(N)=O)NC(=O)[C@H](Cc1ccc(I)cc1)N1C(=O)c2ccc3c4c(ccc(c24)C1=O)C(=O)N([C@@H](Cc1ccc(I)cc1)C(=O)N[C@@H](CCC(N)=O)C(=O)N[C@@H](Cc1c[nH]c2ccccc12)C(=O)N[C@@H](C)C(=O)N[C@H](C(=O)NCC(=O)N[C@@H](Cc1c[nH]cn1)C(=O)N[C@@H](CC(C)C)C(N)=O)C(C)C)C3=O)C(C)C)C(N)=O [L-4] | > 100 | 75 | 25 | 4.76 | 0.51 | 79 | 21 | 0.49 | 77 | 23 | 0.48 | 4.29 | 84 | 16 | 86 | 14 | 0.26 | 4.97 | nontoxic | > 100 | aggregate morphology [4]: granular and globular morphology; τ2 (long-lifetime component) ([1]; DMSO, 0.1 mM): 5.45 ns; τ1 (short-lifetime component) ([1]; DMSO/H2O (1:1), 0.025 mM): 0.48 ns; τ2 (long-lifetime component) ([1]; DMSO/H2O (1:1), 0.025 mM): 9.57 ns; a1 (amplitude of τ1) ([1]; DMSO/H2O (1:1), 0.25 mM): 83%; a2 (amplitude of τ2) ([1]; DMSO/H2O (1:1), 0.25 mM): 17%; τ1 (short-lifetime component) ([1]; DMSO/H2O (1:1), 0.25 mM): 0.40 ns; τ2 (long-lifetime component) ([1]; DMSO/H2O (1:1), 0.25 mM): 3.12 ns
3 | CC1=CC(C)=[N+]2C1=C(c1ccc(C(=O)NCCN3C(=O)c4ccc5c6c(ccc(c46)C3=O)C(=O)N([C@@H](CCC(N)=O)C(=O)N[C@@H](Cc3c[nH]c4ccccc34)C(=O)N[C@@H](C)C(=O)N[C@H](C(=O)NCC(=O)N[C@@H](Cc3c[nH]cn3)C(=O)N[C@@H](CC(C)C)C(N)=O)C(C)C)C5=O)cc1)c1c(C)cc(C)n1[B-]2(F)F [L-6] | – | 68 | 32 | 3.34 | 0.14 | 80 | 20 | 0.14 | 66 | 34 | 0.14 | 1.67 | – | – | 65 | 35 | 0.15 | 2.25 | nontoxic | > 100 | uptake after pre-blocking with L-[7–13]BBN [5]: significant decrease of the uptake efficiency in pretreated cells; uptake after pre-blocking with L-[7–13]BBN ([5]; listed as L -6): significantly lesser extent than in the nonblocked experiment; τ2 (long-lifetime component) ([1]; DMSO, 0.1 mM): 2.64 ns; τ1 relative to BODIPY-linker precursor 5 ([1]; TCSPC in solution, assigned to self-aggregation): 10 fold lower; τ1 (approximate) ([1]; both DMSO and DMSO/H2O solutions, TCSPC): ~0.1 ns
